From US20240360228A1 (BIOLEGEND, published 2024)
Each block holds one binder with its values, some of them ahead of it.

Experiments:
human CCR8 [1] = biological target: T1, human CCR8 (human, UniProt P51685 1-355); assay: flow blocking, PBMC CCR8+CD3+; competitor PE-AB5
T1 construct: Native CCR8 on human PBMC (CCR8+ CD3+ or CCR8+ CD4+ lymphocytes); also called chemokine (C-C motif) receptor 8
Procedure: (§1) For blocking studies, 100 μL of the cell suspension were incubated with 10 μg purified isotype control, AB1, AB2, AB3, AB4, AB5, AB8, AB9, AB10, AB11, AB12, AB13, AB14, AB15, and Commercial ABI antibodies, or isotype control, as blocking agents.
(§2) After incubation with the blocking agent, the cells were incubated with 0.25 μg of the indicated PE-conjugated antibody plus anti-human CD4 APC or anti-human CD3 for another 15 minutes in the dark and then washed 2 times with Cell Staining Buffer, and acquired in a FACSCanto II flow cytometer (BD Biosciences); the data was analyzed using FCS Express (De Novo Software); MFI correspond to the CCR8+ CD4+ lymphocytes or CCR8+ CD3+ lymphocytes.
(§3) Percentage original MFI was calculated by dividing the MFI of samples blocked with AB1, AB2, AB3, AB4, AB5, AB6, AB7, AB8, AB9, AB10, AB11, AB12, AB13, AB14, AB15, and Commercial ABI antibodies, by the MFI of samples blocked with the corresponding isotype control. This value was subtracted from 100 to get a blocking percentage. The formula is shown below: […]

human CCR8 [2] = biological target: T1, human CCR8; assay: flow blocking, PBMC CCR8+CD3+; competitor PE-AB6
Procedure: as §1, §2, §3

human CCR8 [3] = biological target: T1, human CCR8; assay: flow blocking, PBMC CCR8+CD3+; competitor PE-AB7
Procedure: as §1, §2, §3

human CCR8 [4] = biological target: T1, human CCR8; assay: flow blocking, PBMC CCR8+CD3+; competitor PE-AB8
Procedure: as §1, §2, §3

human CCR8 [5] = biological target: T1, human CCR8; assay: flow blocking, PBMC CCR8+CD3+; competitor PE-433H
Procedure: as §1, §2, §3

human CCR8 [6] = biological target: T1, human CCR8; assay: flow blocking, PBMC CCR8+CD3+; competitor PE-AB10
Procedure: as §1, §2, §3

human CCR8 [7] = biological target: T1, human CCR8; assay: flow blocking, PBMC CCR8+CD3+; competitor PE-AB11
Procedure: as §1, §2, §3

human CCR8 [8] = biological target: T1, human CCR8; assay: flow blocking, PBMC CCR8+CD3+; competitor PE-AB12
Procedure: as §1, §2, §3

human CCR8 [9] = biological target: T1, human CCR8; assay: flow blocking, PBMC CCR8+CD3+; competitor PE-AB13
Procedure: as §1, §2, §3

human CCR8 [10] = biological target: T1, human CCR8; assay: flow blocking, PBMC CCR8+CD3+; competitor PE-AB14
Procedure: as §1, §2, §3

human CCR8 [11] = biological target: T1, human CCR8; assay: flow blocking, PBMC CCR8+CD3+; competitor PE-AB15
Procedure: as §1, §2, §3

human CCR8 [12] = biological target: T1, human CCR8; assay: flow blocking, PBMC CCR8+CD3+; competitor PE-L263G8
Procedure: as §1, §2, §3

human CCR8 [13] = biological target: T1, human CCR8; assay: flow blocking, PBMC CCR8+CD4+; competitor PE-AB1
Procedure: as §1, §2, §3

human CCR8 [14] = biological target: T1, human CCR8; assay: flow blocking, PBMC CCR8+CD4+; competitor PE-AB2
Procedure: as §1, §2, §3

human CCR8 [15] = biological target: T1, human CCR8; assay: flow blocking, PBMC CCR8+CD4+; competitor PE-AB3
Procedure: as §1, §2, §3

human CCR8 [16] = biological target: T1, human CCR8; assay: flow blocking, PBMC CCR8+CD4+; competitor PE-AB4
Procedure: as §1, §2, §3

human CCR8 [17] = biological target: T1, human CCR8; assay: flow blocking, PBMC CCR8+CD4+; competitor PE-AB5
Procedure: as §1, §2, §3

human CCR8 [18] = biological target: T1, human CCR8; assay: flow blocking, PBMC CCR8+CD4+; competitor PE-AB6
Procedure: as §1, §2

human CCR8 [19] = biological target: T1, human CCR8; assay: flow blocking, PBMC CCR8+CD4+; competitor PE-433H
Procedure: as §1, §2

human CCR8 [20] = biological target: T1, human CCR8; assay: flow blocking, PBMC CCR8+CD4+; competitor PE-AB10
Procedure: as §1, §2, §3

human CCR8 [21] = biological target: T1, human CCR8; assay: flow blocking, PBMC CCR8+CD4+; competitor PE-AB11
Procedure: as §1, §2, §3

human CCR8 [22] = biological target: T1, human CCR8; assay: flow blocking, PBMC CCR8+CD4+; competitor PE-AB12
Procedure: as §1, §2, §3

human CCR8 [23] = biological target: T1, human CCR8; assay: flow blocking, PBMC CCR8+CD4+; competitor PE-AB13
Procedure: as §1, §2

human CCR8 [24] = biological target: T1, human CCR8; assay: flow blocking, PBMC CCR8+CD4+; competitor PE-AB14
Procedure: as §1, §2

human CCR8 [25] = biological target: T1, human CCR8; assay: flow blocking, PBMC CCR8+CD4+; competitor PE-AB15
Procedure: as §1, §2, §3

T1 sequence (P51685 whole entry): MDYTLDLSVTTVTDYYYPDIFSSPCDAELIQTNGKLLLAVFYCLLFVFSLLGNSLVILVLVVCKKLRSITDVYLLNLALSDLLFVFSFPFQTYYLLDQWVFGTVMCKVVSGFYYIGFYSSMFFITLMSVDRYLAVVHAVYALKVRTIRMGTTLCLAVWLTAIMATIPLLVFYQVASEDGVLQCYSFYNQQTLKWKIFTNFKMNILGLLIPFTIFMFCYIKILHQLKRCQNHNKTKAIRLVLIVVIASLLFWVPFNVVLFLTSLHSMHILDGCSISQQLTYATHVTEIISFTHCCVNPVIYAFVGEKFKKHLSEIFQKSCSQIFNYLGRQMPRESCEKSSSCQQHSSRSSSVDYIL

B2: AB2 (antibody, V domains shown)
VH: QVQLKESGPGLVKPSETLSLTCTVSGFSLTSYHISWVRQPPGKGLEWMGVIWGDGSKTYNSALKSRLSISRDTSKSQVFLKMRSLKTEDTATYYCARGGDSGFAYWGQGTLVTVSS
VL: DIQMTQSPASLSASLEEIVTITCQASQDIGNWLSWYQQKPGKSPQLLIYGTTNLADGVPSRFSGSRSGTQYSLKISRLQVEDIGIYYCLQAYSVPLTFGSGTKLEIK
notes: Hybridoma monoclonal; Same VH/VL entries as AB1; also called antibody 2; clone 2
% Blocking (human CCR8 [13]): 93.5% | % Positive cells (human CCR8 [13]): 0.1% | % Blocking (human CCR8 [14]): 98.8% | % Positive cells (human CCR8 [14]): 0.02% | % Blocking (human CCR8 [15]): 98.2% | % Positive cells (human CCR8 [15]): 0.03% | % Blocking (human CCR8 [16]): 96.6% | % Positive cells (human CCR8 [16]): 0.06% | % Blocking (human CCR8 [17]): 90.1% | % Positive cells (human CCR8 [17]): 0.2% | % Blocking (human CCR8 [18]): 93.6% | % Positive cells (human CCR8 [18]): 0.13% | % Blocking (human CCR8 [19]): 2.84% | % Positive cells (human CCR8 [19]): 1.71% | % Blocking (human CCR8 [20]): 2.7% | % Positive cells (human CCR8 [20]): 1.44% | % Blocking (human CCR8 [21]): -3.57% | % Positive cells (human CCR8 [21]): 2.03% | % Blocking (human CCR8 [22]): -8.89% | % Positive cells (human CCR8 [22]): 1.96% | % Blocking (human CCR8 [23]): -6.06% | % Positive cells (human CCR8 [23]): 2.1% | % Blocking (human CCR8 [24]): -15.4% | % Positive cells (human CCR8 [24]): 1.5% | % Blocking (human CCR8 [25]): -18.6% | % Positive cells (human CCR8 [25]): 1.53%

B3: AB6 (antibody, V domains shown)
VH: QVQLKESGPGLVQPSQTLSLTCTVSGFSLTSYHVSWVRQPPGKGLEWMGVIWTGGSTTYNSLLKSRLSISRDISKSQVFLKMNSLQTEDTATYYCARGGTVVKGGFAYWGQGTLVTVSS
VL: DIQMTQSPASLSASLEEIVTITCQASQDIGNRLSWYQQKPGKSPQLLIYGATSLADGVPSRFSGSRSGTQYSLKISRLQVEDIGIYYCLQAYSTPLTFGSGTKLEIK
notes: Hybridoma monoclonal; Same VH/VL entries as AB5; also called antibody 6; clone 6
% Blocking (human CCR8 [1]): 0.71% | MFI (human CCR8 [1]): 979 | % Blocking (human CCR8 [2]): -4.93% | MFI (human CCR8 [2]): 969 | % Blocking (human CCR8 [3]): 32.7% | MFI (human CCR8 [3]): 786 | % Blocking (human CCR8 [4]): 33.8% | MFI (human CCR8 [4]): 787 | % Blocking (human CCR8 [5]): 10.7% | MFI (human CCR8 [5]): 792 | % Blocking (human CCR8 [6]): -11.6% | MFI (human CCR8 [6]): 890 | % Blocking (human CCR8 [7]): -18.3% | MFI (human CCR8 [7]): 1100 | % Blocking (human CCR8 [8]): -3.13% | MFI (human CCR8 [8]): 1050 | % Blocking (human CCR8 [9]): 2.54% | MFI (human CCR8 [9]): 862 | % Blocking (human CCR8 [10]): 3.88% | MFI (human CCR8 [10]): 831 | % Blocking (human CCR8 [11]): 13.3% | MFI (human CCR8 [11]): 745 | % Blocking (human CCR8 [12]): -16.3% | MFI (human CCR8 [12]): 783

Now from value to binder:

% Blocking (human CCR8 [1]): -6.64% | MFI (human CCR8 [1]): 1050 | % Blocking (human CCR8 [2]): -23.2% | MFI (human CCR8 [2]): 1140 | % Blocking (human CCR8 [3]): 47.3% | MFI (human CCR8 [3]): 616 | % Blocking (human CCR8 [4]): 26.6% | MFI (human CCR8 [4]): 873 | % Blocking (human CCR8 [5]): 45.2% | MFI (human CCR8 [5]): 486 | % Blocking (human CCR8 [6]): 12.2% | MFI (human CCR8 [6]): 700 | % Blocking (human CCR8 [7]): 53.2% | MFI (human CCR8 [7]): 434 | % Blocking (human CCR8 [8]): 49.1% | MFI (human CCR8 [8]): 520 | % Blocking (human CCR8 [9]): -0.34% | MFI (human CCR8 [9]): 888 | % Blocking (human CCR8 [10]): 28.5% | MFI (human CCR8 [10]): 618 | % Blocking (human CCR8 [11]): 23.2% | MFI (human CCR8 [11]): 660 | % Blocking (human CCR8 [12]): 0.82% | MFI (human CCR8 [12]): 668
B1: AB7 (antibody, V domains shown)
VH: AVQLVESGGGLVQPKESLKISCAASGFTFSYAAMYWVRQTPGKGLEWVARIRTKPNNYATYYADSVKGRFTISRDDSKSMVYLQMDNLKSEDTAMYYCNIMGITRGYYFDYWGQGVMVTVSS
VL: DIQMTQSPSFLSASVGDRVTINCKASQNINRYLNWYQQQLGEAPKLLIYNANNLQTGIPSRFSGSRSGTDFTLTISSLQPEDVATYFCLQHNSWPWTFGGGTKLELK
notes: Hybridoma monoclonal; also called antibody 7; clone 7

% Blocking (human CCR8 [13]): -38.7% | % Positive cells (human CCR8 [13]): 2.15% | % Blocking (human CCR8 [14]): -28.1% | % Positive cells (human CCR8 [14]): 2.1% | % Blocking (human CCR8 [15]): -33.3% | % Positive cells (human CCR8 [15]): 2.28% | % Blocking (human CCR8 [16]): -1.69% | % Positive cells (human CCR8 [16]): 1.81% | % Blocking (human CCR8 [17]): -17.8% | % Positive cells (human CCR8 [17]): 2.38% | % Blocking (human CCR8 [18]): -23.8% | % Positive cells (human CCR8 [18]): 2.5% | % Blocking (human CCR8 [19]): 21.6% | % Positive cells (human CCR8 [19]): 1.38% | % Blocking (human CCR8 [20]): 93.2% | % Positive cells (human CCR8 [20]): 0.1% | % Blocking (human CCR8 [21]): 85.2% | % Positive cells (human CCR8 [21]): 0.29% | % Blocking (human CCR8 [22]): 99.4% | % Positive cells (human CCR8 [22]): 0.01% | % Blocking (human CCR8 [23]): 91.9% | % Positive cells (human CCR8 [23]): 0.16% | % Blocking (human CCR8 [24]): 99.2% | % Positive cells (human CCR8 [24]): 0.01% | % Blocking (human CCR8 [25]): 93.8% | % Positive cells (human CCR8 [25]): 0.08%
B4: AB15 (antibody, V domains shown)
VH: EVQLVESGGGLVQPKGSLKLSCAASGFTFNTYAMNWVRQAPGKGLEWVARIRSKSNNYATYYVDSVKDRFTISRDDSQSMLYLQINNLKTEDTAMYYCVRGRELGPYSAMDYWGQGTSVTVSS
VL: DIVMTQAAPSVPVTPGESVSISCRSSKSLLHSNGNTYLYWFLQRPGQSPQLLIYRMSNLASGVPDRFSGSGSGTAFTLRISRVEAEDVGLYYCMQHLEYPFTFGGGTKLEIK
notes: Hybridoma monoclonal; Same VH/VL entries as AB14; also called antibody 15; clone 15
